From the supplement of paper PMC10598134
± gives the standard deviation.

Test: collision cross section of modified peptide (TIMS, N2, iRT-aligned); higher = larger / more extended gas-phase ion
Description: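 1/K0 was aligned run-wise to spiked iRT peptides and converted to CCS in N2 (Mason-Schamp). Values are the mean of 1-3 technical replicates for the most abundant feature at each charge state.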

[1] = charge state: 2, modification: hydroxyisobutyryl
[2] = charge state: 3, modification: hydroxyisobutyryl
[3] = charge state: 2, modification: Nitro (Y)
[4] = charge state: 3, modification: Nitro (Y)
[5] = charge state: 2, modification: Phospho (Y)
[6] = charge state: 3, modification: Citrullination (R)
[7] = charge state: 3, modification: Methyl (R)
[8] = charge state: 3, modification: Acetyl (K)
[9] = charge state: 3, modification: Butyryl
[10] = charge state: 3, modification: Crotonyl
[11] = charge state: 3, modification: Formyl
[12] = charge state: 3, modification: Glutarylation
[13] = charge state: 3, modification: GlyGly (K)
[14] = charge state: 3, modification: Methyl (K)
[15] = charge state: 3, modification: Succinyl
[16] = charge state: 2, modification: HexNAc (ST)
[17] = charge state: 2, modification: Acetyl (K)
[18] = charge state: 2, modification: Biotin
[19] = charge state: 3, modification: Biotin
[20] = charge state: 2, modification: Butyryl
[21] = charge state: 2, modification: Crotonyl
[22] = charge state: 2, modification: Dimethyl (K)
[23] = charge state: 3, modification: Dimethyl (K)
[24] = charge state: 2, modification: Formyl
[25] = charge state: 2, modification: Glutarylation
[26] = charge state: 2, modification: GlyGly (K)
[27] = charge state: 2, modification: Malonyl
[28] = charge state: 2, modification: Methyl (K)
[29] = charge state: 2, modification: Propionyl
[30] = charge state: 2, modification: Succinyl
[31] = charge state: 3, modification: Trimethyl (K)
[32] = charge state: 2, modification: Trimethyl (K)

Sequence: DLSTVEALQNLKNLK [_DLSTVEALQNLK(hydroxyisobutyryl)NLK_]
- collision cross section [1]: 486.36 ± 1.3 Å²
- collision cross section [2]: 549.84 ± 1.8 Å²

Sequence: DLTTAGAVTQCYR [_DLTTAGAVTQCY(Nitro (Y))R_]
- collision cross section [3]: 399.32 ± 0.8 Å²
- collision cross section [4]: 462.24 Å²

Sequence: DLTTAGAVTQCYR [_DLTTAGAVTQCY(Phospho (Y))R_]
- collision cross section [5]: 405.28 ± 0.061 Å²

Sequence: DLYEPSHGAK [_DLY(Nitro (Y))EPSHGAK_]
- collision cross section [3]: 364.04 ± 0.94 Å²
- collision cross section [4]: 435.87 ± 1.2 Å²

Sequence: DLYEPSHGAK [_DLY(Phospho (Y))EPSHGAK_]
- collision cross section [5]: 375.68 ± 0.063 Å²

Sequence: DNNNSNNRGSYNR [_DNNNSNNR(Citrullination (R))GSYNR_]
- collision cross section [6]: 460.73 ± 2.9 Å²

Sequence: DNNNSNNRGSYNR [_DNNNSNNR(Methyl (R))GSYNR_]
- collision cross section [7]: 460.8 ± 2.4 Å²

Sequence: DSINFLDHINGKK [_DSINFLDHINGK(Acetyl (K))K_]
- collision cross section [8]: 470.59 Å²

Sequence: DSINFLDHINGKK [_DSINFLDHINGK(Butyryl)K_]
- collision cross section [9]: 471.81 Å²

Sequence: DSINFLDHINGKK [_DSINFLDHINGK(Crotonyl)K_]
- collision cross section [10]: 467.81 Å²

Sequence: DSINFLDHINGKK [_DSINFLDHINGK(Formyl)K_]
- collision cross section [11]: 468.04 Å²

Sequence: DSINFLDHINGKK [_DSINFLDHINGK(Gluratylation)K_]
- collision cross section [12]: 460.36 ± 1.7 Å²

Sequence: DSINFLDHINGKK [_DSINFLDHINGK(GlyGly (K))K_]
- collision cross section [13]: 464.41 ± 1.6 Å²

Sequence: DSINFLDHINGKK [_DSINFLDHINGK(Methyl (K))K_]
- collision cross section [14]: 461.65 ± 2.7 Å²

Sequence: DSINFLDHINGKK [_DSINFLDHINGK(Succinyl)K_]
- collision cross section [15]: 461.79 Å²

Sequence: DSINFLDHINGKK [_DSINFLDHINGK(hydroxyisobutyryl)K_]
- collision cross section [2]: 468.17 ± 2.7 Å²

Sequence: DSLGVSFPEELACK [_DSLGVS(HexNAc (ST))FPEELACK_]
- collision cross section [16]: 437.05 Å²

Sequence: DSRGGGGNFGPGPGSNFR [_DSR(Citrullination (R))GGGGNFGPGPGSNFR_]
- collision cross section [6]: 470.03 ± 5.1 Å²

Sequence: DSRGGGGNFGPGPGSNFR [_DSR(Methyl (R))GGGGNFGPGPGSNFR_]
- collision cross section [7]: 480.39 ± 3.1 Å²

Sequence: DSSPTTNSKLSALQR [_DSSPTTNSK(Acetyl (K))LSALQR_]
- collision cross section [17]: 430.6 ± 0.81 Å²
- collision cross section [8]: 495.74 ± 2.2 Å²

Sequence: DSSPTTNSKLSALQR [_DSSPTTNSK(Biotin)LSALQR_]
- collision cross section [18]: 447.16 ± 2.3 Å²
- collision cross section [19]: 519.36 ± 0.34 Å²

Sequence: DSSPTTNSKLSALQR [_DSSPTTNSK(Butyryl)LSALQR_]
- collision cross section [20]: 435.34 ± 0.76 Å²
- collision cross section [9]: 499.02 ± 1.9 Å²

Sequence: DSSPTTNSKLSALQR [_DSSPTTNSK(Crotonyl)LSALQR_]
- collision cross section [21]: 436.18 ± 0.54 Å²
- collision cross section [10]: 499.72 ± 1.3 Å²

Sequence: DSSPTTNSKLSALQR [_DSSPTTNSK(Dimethyl (K))LSALQR_]
- collision cross section [22]: 423.14 ± 1.1 Å²
- collision cross section [23]: 472.53 ± 1.6 Å²

Sequence: DSSPTTNSKLSALQR [_DSSPTTNSK(Formyl)LSALQR_]
- collision cross section [24]: 427.17 ± 1.8 Å²
- collision cross section [11]: 491.37 ± 1.3 Å²

Sequence: DSSPTTNSKLSALQR [_DSSPTTNSK(Gluratylation)LSALQR_]
- collision cross section [25]: 431.44 ± 1.5 Å²
- collision cross section [12]: 500.2 ± 1 Å²

Sequence: DSSPTTNSKLSALQR [_DSSPTTNSK(GlyGly (K))LSALQR_]
- collision cross section [26]: 434.5 ± 1.6 Å²
- collision cross section [13]: 501.52 ± 0.79 Å²

Sequence: DSSPTTNSKLSALQR [_DSSPTTNSK(Malonyl)LSALQR_]
- collision cross section [27]: 424.62 ± 0.65 Å²
- collision cross section (charge state: 3, modification: Malonyl): 494.68 ± 0.88 Å²

Sequence: DSSPTTNSKLSALQR [_DSSPTTNSK(Methyl (K))LSALQR_]
- collision cross section [28]: 419.3 Å²
- collision cross section [14]: 475.79 ± 3.5 Å²

Sequence: DSSPTTNSKLSALQR [_DSSPTTNSK(Propionyl)LSALQR_]
- collision cross section [29]: 430.82 ± 2.1 Å²
- collision cross section (charge state: 3, modification: Propionyl): 498.95 Å²

Sequence: DSSPTTNSKLSALQR [_DSSPTTNSK(Succinyl)LSALQR_]
- collision cross section [30]: 428.81 ± 1.1 Å²
- collision cross section [15]: 496.14 ± 4.3 Å²

Sequence: DSSPTTNSKLSALQR [_DSSPTTNSK(Trimethyl (K))LSALQR_]
- collision cross section [31]: 473.36 ± 2.4 Å²

Sequence: DSSPTTNSKLSALQR [_DSSPTTNSK(hydroxyisobutyryl)LSALQR_]
- collision cross section [1]: 437.4 ± 0.29 Å²
- collision cross section [2]: 502.1 ± 2.1 Å²

Sequence: DTGEKLTVAENEAETK [_DTGEK(Acetyl (K))LTVAENEAETK_]
- collision cross section [17]: 441.95 ± 2.1 Å²
- collision cross section [8]: 512.62 Å²

Sequence: DTGEKLTVAENEAETK [_DTGEK(Butyryl)LTVAENEAETK_]
- collision cross section [20]: 448.65 ± 0.25 Å²

Sequence: DTGEKLTVAENEAETK [_DTGEK(Crotonyl)LTVAENEAETK_]
- collision cross section [21]: 449.13 ± 0.83 Å²

Sequence: DTGEKLTVAENEAETK [_DTGEK(Dimethyl (K))LTVAENEAETK_]
- collision cross section [22]: 442.93 ± 0.72 Å²
- collision cross section [23]: 481.58 ± 2.1 Å²

Sequence: DTGEKLTVAENEAETK [_DTGEK(Formyl)LTVAENEAETK_]
- collision cross section [24]: 439.79 ± 0.78 Å²

Sequence: DTGEKLTVAENEAETK [_DTGEK(Gluratylation)LTVAENEAETK_]
- collision cross section [25]: 451.19 ± 1.1 Å²
- collision cross section [12]: 527.35 Å²

Sequence: DTGEKLTVAENEAETK [_DTGEK(GlyGly (K))LTVAENEAETK_]
- collision cross section [26]: 443.91 ± 1.6 Å²
- collision cross section [13]: 490.28 ± 1.9 Å²

Sequence: DTGEKLTVAENEAETK [_DTGEK(Malonyl)LTVAENEAETK_]
- collision cross section [27]: 444.04 ± 1.8 Å²

Sequence: DTGEKLTVAENEAETK [_DTGEK(Methyl (K))LTVAENEAETK_]
- collision cross section [28]: 429.8 ± 2.5 Å²
- collision cross section [14]: 482 ± 3.4 Å²

Sequence: DTGEKLTVAENEAETK [_DTGEK(Propionyl)LTVAENEAETK_]
- collision cross section [29]: 443.51 Å²

Sequence: DTGEKLTVAENEAETK [_DTGEK(Succinyl)LTVAENEAETK_]
- collision cross section [30]: 445.72 ± 1.1 Å²
- collision cross section [15]: 515.74 ± 2.2 Å²

Sequence: DTGEKLTVAENEAETK [_DTGEK(Trimethyl (K))LTVAENEAETK_]
- collision cross section [32]: 443.08 Å²
- collision cross section [31]: 490.09 ± 1.8 Å²

Sequence: DTGEKLTVAENEAETK [_DTGEK(hydroxyisobutyryl)LTVAENEAETK_]
- collision cross section [1]: 449.65 ± 0.82 Å²
- collision cross section [2]: 520.27 ± 2.8 Å²

Sequence: DTPTSAGPNSFNKGK [_DTPTSAGPNSFNK(Acetyl (K))GK_]
- collision cross section [17]: 406.79 ± 1.5 Å²

Sequence: DTPTSAGPNSFNKGK [_DTPTSAGPNSFNK(Biotin)GK_]
- collision cross section [18]: 428.73 ± 1.1 Å²
- collision cross section [19]: 478.46 Å²

Sequence: DTPTSAGPNSFNKGK [_DTPTSAGPNSFNK(Butyryl)GK_]
- collision cross section [20]: 412.93 ± 0.78 Å²
- collision cross section [9]: 464.51 ± 3.2 Å²

Sequence: DTPTSAGPNSFNKGK [_DTPTSAGPNSFNK(Crotonyl)GK_]
- collision cross section [21]: 412.68 ± 0.55 Å²
- collision cross section [10]: 462.19 Å²

Sequence: DTPTSAGPNSFNKGK [_DTPTSAGPNSFNK(Dimethyl (K))GK_]
- collision cross section [22]: 406.79 ± 1.1 Å²
- collision cross section [23]: 455.12 ± 1.6 Å²

Sequence: DTPTSAGPNSFNKGK [_DTPTSAGPNSFNK(Formyl)GK_]
- collision cross section [24]: 404 ± 0.2 Å²

Sequence: DTPTSAGPNSFNKGK [_DTPTSAGPNSFNK(Gluratylation)GK_]
- collision cross section [25]: 415.83 ± 1.8 Å²
- collision cross section [12]: 444.87 ± 1.9 Å²

Sequence: DTPTSAGPNSFNKGK [_DTPTSAGPNSFNK(GlyGly (K))GK_]
- collision cross section [26]: 413.5 ± 3.1 Å²
- collision cross section [13]: 464.37 ± 0.33 Å²

Sequence: DTPTSAGPNSFNKGK [_DTPTSAGPNSFNK(Malonyl)GK_]
- collision cross section [27]: 408.63 ± 0.58 Å²

Sequence: DTPTSAGPNSFNKGK [_DTPTSAGPNSFNK(Methyl (K))GK_]
- collision cross section [28]: 405.71 ± 2.7 Å²
- collision cross section [14]: 460.78 ± 4.6 Å²

Sequence: DTPTSAGPNSFNKGK [_DTPTSAGPNSFNK(Propionyl)GK_]
- collision cross section [29]: 410.13 ± 0.64 Å²

Sequence: DTPTSAGPNSFNKGK [_DTPTSAGPNSFNK(Succinyl)GK_]
- collision cross section [30]: 411.39 ± 1.1 Å²

Sequence: DTPTSAGPNSFNKGK [_DTPTSAGPNSFNK(Trimethyl (K))GK_]
- collision cross section [32]: 411.65 ± 1.2 Å²
- collision cross section [31]: 457.6 ± 1.8 Å²

Sequence: DTPTSAGPNSFNKGK [_DTPTSAGPNSFNK(hydroxyisobutyryl)GK_]
- collision cross section [1]: 416.06 ± 1.1 Å²
- collision cross section [2]: 443.44 ± 3 Å²

Sequence: DVFISAAER [_DVFIS(HexNAc (ST))AAER_]
- collision cross section [16]: 363.87 Å²

Sequence: DVNAAIAAIKTK [_DVNAAIAAIK(Acetyl (K))TK_]
- collision cross section [17]: 390.07 ± 14 Å²
- collision cross section [8]: 457.21 Å²

Sequence: DVNAAIAAIKTK [_DVNAAIAAIK(Biotin)TK_]
- collision cross section [18]: 423.85 Å²

Sequence: DVNAAIAAIKTK [_DVNAAIAAIK(Butyryl)TK_]
- collision cross section [20]: 406.92 ± 0.23 Å²
- collision cross section [9]: 469.41 Å²

Sequence: DVNAAIAAIKTK [_DVNAAIAAIK(Crotonyl)TK_]
- collision cross section [21]: 406.32 ± 0.28 Å²
- collision cross section [10]: 463.44 ± 4.2 Å²
